IntAct's records for PubMed 16499958

B1: Rab5 GDP/GTP exchange factor (Homo sapiens), Q9UJ41 (parent)
chain: MSLKSERRGIHVDQSDLLCKKGCGYYGNPAWQGFCSKCWREEYHKARQKQIQEDWELAERLQREEEEAFASSQSSQGAQSLTFSKFEEKKTNEKTRKVTTVKKFFSASSRVGSKKEIQEAKAPSPSINRQTSIETDRVSKEFIEFLKTFHKTGQEIYKQTKLFLEGMHYKRDLSIEEQSECAQDFYHNVAERMQTRGKVPPERVEKIMDQIEKYIMTRLYKYVFCPETTDDEKKDLAIQKRIRALRWVTPQMLCVPVNEDIPEVSDMVVKAITDIIEMDSKRVPRDKLACITKCSKHIFNAIKITKNEPASADDFLPTLIYIVLKGNPPRLQSNIQYITRFCNPSRLMTGEDGYYFTNLCCAVAFIEKLDAQSLNLSQEDFDRYMSGQTSPRKQEAESWSPDACLGVKQMYKNLDLLSQLNERQERIMNEAKKLEKDLIDWTDGIAREVQDIVEKYPLEIKPPNQPLAAIDSENVENDKLPPPLQPQVYAG
B2: Unconventional myosin-VI (Homo sapiens), Q9UM54 (parent)
chain: MEDGKPVWAPHPTDGFQMGNIVDIGPDSLTIEPLNQKGKTFLALINQVFPAEEDSKKDVEDNCSLMYLNEATLLHNIKVRYSKDRIYTYVANILIAVNPYFDIPKIYSSEAIKSYQGKSLGTRPPHVFAIADKAFRDMKVLKMSQSIIVSGESGAGKTENTKFVLRYLTESYGTGQDIDDRIVEANPLLEAFGNAKTVRNNNSSRFGKFVEIHFNEKSSVVGGFVSHYLLEKSRICVQGKEERNYHIFYRLCAGASEDIREKLHLSSPDNFRYLNRGCTRYFANKETDKQILQNRKSPEYLKAGSMKDPLLDDHGDFIRMCTAMKKIGLDDEEKLDLFRVVAGVLHLGNIDFEEAGSTSGGCNLKNKSAQSLEYCAELLGLDQDDLRVSLTTRVMLTTAGGTKGTVIKVPLKVEQANNARDALAKTVYSHLFDHVVNRVNQCFPFETSSYFIGVLDIAGFEYFEHNSFEQFCINYCNEKLQQFFNERILKEEQELYQKEGLGVNEVHYVDNQDCIDLIEAKLVGILDILDEENRLPQPSDQHFTSAVHQKHKDHFRLTIPRKSKLAVHRNIRDDEGFIIRHFAGAVCYETTQFVEKNNDALHMSLESLICESRDKFIRELFESSTNNNKDTKQKAGKLSFISVGNKFKTQLNLLLDKLRSTGASFIRCIKPNLKMTSHHFEGAQILSQLQCSGMVSVLDLMQGGYPSRASFHELYNMYKKYMPDKLARLDPRLFCKALFKALGLNENDYKFGLTKVFFRPGKFAEFDQIMKSDPDHLAELVKRVNHWLTCSRWKKVQWCSLSVIKLKNKIKYRAEACIKMQKTIRMWLCKRRHKPRIDGLVKVGTLKKRLDKFNEVVSVLKDGKPEMNKQIKNLEISIDTLMAKIKSTMMTQEQIQKEYDALVKSSEELLSALQKKKQQEEEAERLRRIQEEMEKERKRREEDEKRRRKEEEERRMKLEMEAKRKQEEEERKKREDDEKRIQAEVEAQLARQKEEESQQQAVLEQERRDRELALRIAQSEAELISDEAQADLALRRSLDSYPVSKNDGTRPKMTPEQMAKEMSEFLSRGPAVLATKAAAGTKKYDLSKWKYAELRDTINTSCDIELLAACREEFHRRLKVYHAWKSKNKKRNTETEQRAPKSVTDYDFAPFLNNSPQQNPAAQIPARQREIEMNRQQRFFRIPFIRPADQYKDPQSKKKGWWYAHFDGPWIARQMELHPDKPPILLVAGKDDMEMCELNLEETGLTRKRGAEILPRQFEEIWERCGGIQYLQNAIESRQARPTYATAMLQSLLK

Variants of: B1
Conditions: with ubb_human UBB

**Q.** For Y25F, which “effect of a mutation on the interaction” value is on record?
**A.** Its value is “decreasing interaction”.

Variants of: B1
Conditions: with ubb_human UBB
Remark: another data set of the same source

**Q.** How did the “effect of a mutation on the interaction” value turn out when A58G was run?
**A.** Its value is “decreasing interaction”.

Variants of: B2
Conditions: with ubb_human UBB

**Q.** With A1013G as the variant, how does the “effect of a mutation on the interaction” value read?
**A.** Its value is “decreasing interaction”.
